Experimental data reported in the supplement of paper PMC5998384.

Assays:
HeLa Kyoto [1] = experiment: solubility change mitosis vs G1/S (difference of NP-40 vs SDS log2 ratios) (log2 ratio difference); higher = more soluble in mitosis
HeLa Kyoto [2] = experiment: thermal stability score vs G1/S (z-score of summed log2 fold changes over temperatures); higher = more thermally stable than in G1/S
HeLa Kyoto [3] = experiment: melting temperature (median over replicates), in situ; higher = more thermally stable
[4] = cell cycle stage: early G1 (4.5 h after nocodazole release)
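For melting temperature (median over replicates), in situ in this document: HeLa Kyoto cells synchronized by double thymidine or nocodazole block, proteins quantified by TMT10plex mass spectrometry, three independent biological replicates.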
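For solubility change mitosis vs G1/S (difference of NP-40 vs SDS log2 ratios) in this document: synchronized HeLa Kyoto cells (double thymidine block for G1/S, nocodazole release for mitosis), protein amounts in NP-40 versus SDS lysates quantified by mass spectrometry, three biological replicates.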
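For thermal stability score vs G1/S (z-score of summed log2 fold changes over temperatures) in this document: synchronized HeLa Kyoto cells, proteins quantified by TMT10plex mass spectrometry, three biological replicates, mitosis taken 0.5 h after nocodazole release, G1/S directly after double thymidine block.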

AGRN, sequence (chain, as listed by the source): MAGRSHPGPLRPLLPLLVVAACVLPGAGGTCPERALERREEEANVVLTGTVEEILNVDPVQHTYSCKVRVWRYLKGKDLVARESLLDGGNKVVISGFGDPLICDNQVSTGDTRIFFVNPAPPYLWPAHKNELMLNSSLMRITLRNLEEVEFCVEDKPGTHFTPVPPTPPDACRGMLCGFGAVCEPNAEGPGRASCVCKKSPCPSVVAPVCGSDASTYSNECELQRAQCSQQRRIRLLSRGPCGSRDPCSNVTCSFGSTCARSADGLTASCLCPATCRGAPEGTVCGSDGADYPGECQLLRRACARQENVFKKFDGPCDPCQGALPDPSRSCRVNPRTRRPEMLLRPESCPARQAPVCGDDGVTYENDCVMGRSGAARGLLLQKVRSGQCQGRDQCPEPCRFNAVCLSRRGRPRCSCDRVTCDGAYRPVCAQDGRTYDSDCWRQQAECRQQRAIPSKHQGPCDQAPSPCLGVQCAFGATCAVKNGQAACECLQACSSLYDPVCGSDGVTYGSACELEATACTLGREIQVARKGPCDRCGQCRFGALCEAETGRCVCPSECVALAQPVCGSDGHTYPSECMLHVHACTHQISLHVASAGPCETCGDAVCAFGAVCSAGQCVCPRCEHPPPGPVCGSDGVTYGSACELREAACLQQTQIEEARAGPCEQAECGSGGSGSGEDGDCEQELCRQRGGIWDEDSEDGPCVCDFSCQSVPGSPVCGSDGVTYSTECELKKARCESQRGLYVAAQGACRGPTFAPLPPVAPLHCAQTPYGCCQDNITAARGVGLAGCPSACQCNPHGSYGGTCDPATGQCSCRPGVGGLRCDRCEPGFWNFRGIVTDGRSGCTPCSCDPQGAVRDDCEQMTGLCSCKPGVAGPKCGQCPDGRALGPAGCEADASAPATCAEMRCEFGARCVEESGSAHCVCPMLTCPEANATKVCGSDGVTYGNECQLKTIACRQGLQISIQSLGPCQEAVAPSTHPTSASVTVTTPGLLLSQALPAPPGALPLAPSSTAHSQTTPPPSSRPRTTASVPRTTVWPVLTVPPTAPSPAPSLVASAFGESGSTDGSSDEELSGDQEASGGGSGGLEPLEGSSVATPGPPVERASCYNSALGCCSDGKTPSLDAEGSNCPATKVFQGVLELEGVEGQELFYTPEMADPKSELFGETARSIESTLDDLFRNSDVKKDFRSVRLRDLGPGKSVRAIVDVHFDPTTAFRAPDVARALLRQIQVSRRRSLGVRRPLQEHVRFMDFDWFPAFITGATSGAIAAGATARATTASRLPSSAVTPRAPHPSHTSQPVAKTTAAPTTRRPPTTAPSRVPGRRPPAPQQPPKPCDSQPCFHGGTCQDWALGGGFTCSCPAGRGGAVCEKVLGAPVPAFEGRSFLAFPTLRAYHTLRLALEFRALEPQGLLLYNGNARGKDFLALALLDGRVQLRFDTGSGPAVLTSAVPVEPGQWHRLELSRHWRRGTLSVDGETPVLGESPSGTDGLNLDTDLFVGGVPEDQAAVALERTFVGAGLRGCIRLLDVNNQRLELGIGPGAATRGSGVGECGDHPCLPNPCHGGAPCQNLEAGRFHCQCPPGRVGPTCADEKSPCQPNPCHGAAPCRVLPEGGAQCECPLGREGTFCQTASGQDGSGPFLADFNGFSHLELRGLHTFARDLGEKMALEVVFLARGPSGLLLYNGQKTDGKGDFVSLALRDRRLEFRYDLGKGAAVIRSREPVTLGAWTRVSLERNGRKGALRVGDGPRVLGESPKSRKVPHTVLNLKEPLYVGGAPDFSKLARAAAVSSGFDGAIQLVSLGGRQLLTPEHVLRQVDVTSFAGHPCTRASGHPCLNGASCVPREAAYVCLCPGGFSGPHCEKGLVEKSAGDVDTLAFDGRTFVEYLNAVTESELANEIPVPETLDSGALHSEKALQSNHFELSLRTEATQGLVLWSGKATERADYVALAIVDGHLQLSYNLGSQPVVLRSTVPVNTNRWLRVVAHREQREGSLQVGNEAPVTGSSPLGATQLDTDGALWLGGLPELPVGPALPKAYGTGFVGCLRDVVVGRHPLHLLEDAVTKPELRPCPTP

Substance | solubility change mitosis (log2) (HeLa Kyoto [1]) | other results
DYRK1A | 0.0078 | 
ACTA1 | -0.193 | 
SLAIN2 | -0.187 | 
CNOT11 | -0.0916 | 
TUFM | -0.0187 | 
MRPS14 | 0.165 | 
MRPS25 | 0.166 | 
EI24 | -0.07 | 
RPL37 | 1.29 | 
NCK1 | -0.221 | 
GORASP2 | -0.317 | 
S100A6 | 0.893 | 
EMG1 | 0.19 | 
MRPS9 | -0.0743 | 
MEAF6 | 0.685 | 
PTCD3 | -0.182 | 
POLR2E | 0.311 | 
LARP1 | 0.306 | 
MGLTISSLFSRLFGKKQMRILMVGLDAAGKTTILYKLKLGEIVTTIPTIGFNVETVEYKNICFTVWDVGGQDRIRPLWKHYFQNTQGLIFVVDSNDRERIQEVADELQKMLLVDELRDAVLLLFANKQDLPNAMAISEMTDKLGLQSLRNRTWYVQATCATQGTGLYEGLDWLSNELSKR [ARF4] | -0.374 | thermal stability score (HeLa Kyoto [2]; [4]): 4.99; thermal stability score (HeLa Kyoto [2]; cell cycle stage: mitosis): 6.18
TACO1 | 0.0266 | 
RPS5 | 0.452 | 

Substance | solubility change mitosis (log2) (HeLa Kyoto [1]) | other results
RPL4 | 0.805 | 
RPL13 | 0.759 | 
MRPS5 | 0.017 | 
AGRN | -0.0384 | thermal stability score (HeLa Kyoto [2]; [4]): 3.71; thermal stability score (HeLa Kyoto [2]; cell cycle stage: mitosis): 4.6
FNTA | -0.132 | 
RPL27 | 0.573 | 
POLR2B | 0.175 | 
BCKDK | -0.0559 | 
RPL35A | 0.707 | 
IFI30 | 0.347 | 
MRPS18B | 0.111 | 
NUDT1 | -0.22 | 
MYRTKVGLKDRQQLYKLIISQLLYDGYISIANGLINEIKPQSVCAPSEQLLHLIKLGMENDDTAVQYAIGRSDTVAPGTGIDLEFDADVQTMSPEASEYETCYVTSHKGPCRVATYSRDGQLIATGSADASIKILDTERMLAKSAMPIEVMMNETAQQNMENHPVIRTLYDHVDEVTCLAFHPTEQILASGSRDYTLKLFDYSKPSAKRAFKYIQEAEMLRSISFHPSGDFILVGTQHPTLRLYDINTFQCFVSCNPQDQHTDAICSVNYNSSANMYVTGSKDGCIKLWDGVSNRCITTFEKAHDGAEVCSAIFSKNSKYILSSGKDSVAKLWEISTGRTLVRYTGAGLSGRQVHRTQAVFNHTEDYVLLPDERTISLCCWDSRTAERRNLLSLGHNNIVRCIVHSPTNPGFMTCSDDFRARFWYRRSTTD [CSTF1] | -0.043 | thermal stability score (HeLa Kyoto [2]; [4]): -1.59; thermal stability score (HeLa Kyoto [2]; cell cycle stage: mitosis): -2.67
NCKIPSD | -0.148 | 
SARS | -0.0633 | 
DPYSL2 | -0.147 | 
RPS4X | 0.489 | 
RPS10 | 0.59 | 
ETF1 | -0.146 | 
LRPPRC | -0.118 | 
RPL23 | 0.476 | 

Substance | solubility change mitosis (log2) (HeLa Kyoto [1]) | other results
MRPL47 | 0.0261 | 
RPL32 | 0.91 | 
HSPG2 | -0.021 | 
RPS3A | 0.538 | 
MALSU1 | -0.0468 | 
AJUBA | -0.0418 | 
POLB | -0.0195 | 
RPS21 | 0.45 | 
AK2 | 0.09 | 
RAC1 | -0.0656 | 
RPL30 | 0.776 | 
COLGALT1 | 0.0451 | 
GAA | -0.231 | 
MRPL35 | 0.149 | 
MRPL3 | -0.0054 | 
MASDSGNQGTLCTLEFAVQMTCQSCVDAVRKSLQGVAGVQDVEVHLEDQMVLVHTTLPSQEVQALLEGTGRQAVLKGMGSGQLQNLGAAVAILGGPGTVQGVVRFLQLTPERCLIEGTIDGLEPGLHGLHVHQYGDLTNNCNSCGNHFNPDGASHGGPQDSDRHRGDLGNVRADADGRAIFRMEDEQLKVWDVIGRSLIIDEGEDDLGRGGHPLSKITGNSGERLACGIIARSAGLFQNPKQICSCDGLTIWEERGRPIAGKGRKESAQPPAHL [CCS] | 0.0319 | thermal stability score (HeLa Kyoto [2]; [4]): 0.914; thermal stability score (HeLa Kyoto [2]; cell cycle stage: mitosis): 0.694
MEHFDASLSTYFKALLGPRDTRVKGWFLLDNYIPTFICSVIYLLIVWLGPKYMRNKQPFSCRGILVVYNLGLTLLSLYMFCELVTGVWEGKYNFFCQGTRTAGESDMKIIRVLWWYYFSKLIEFMDTFFFILRKNNHQITVLHVYHHASMLNIWWFVMNWVPCGHSYFGATLNSFIHVLMYSYYGLSSVPSMRPYLWWKKYITQGQLLQFVLTIIQTSCGVIWPCTFPLGWLYFQIGYMISLIALFTNFYIQTYNKKGASRRKDHLKDHQNGSMAAVNGHTNSFSPLENNVKPRKLRKD [ELOVL5] |  | thermal stability score (HeLa Kyoto [2]; [4]): -0.682; thermal stability score (HeLa Kyoto [2]; cell cycle stage: mitosis): -0.967; melting temperature (HeLa Kyoto [3]; cell cycle stage: G1/S): 53.3 °C; melting temperature (HeLa Kyoto [3]; cell cycle stage: mitosis): 53.7 °C
GADD45GIP1 | 0.258 | 
MRPL18 | 0.126 | 
SNX27 | -0.11 | 
VPS35 | -0.178 | 

Substance | solubility change mitosis (log2) (HeLa Kyoto [1]) | other results
MRPL4 | -0.11 | 
MAASGPGCRSWCLCPEVPSATFFTALLSLLVSGPRLFLLQQPLAPSGLTLKSEALRNWQVYRLVTYIFVYENPISLLCGAIIIWRFAGNFERTVGTVRHCFFTVIFAIFSAIIFLSFEAVSSLSKLGEVEDARGFTPVAFAMLGVTTVRSRMRRALVFGMVVPSVLVPWLLLGASWLIPQTSFLSNVCGLSIGLAYGLTYCYSIDLSERVALKLDQTFPFSLMRRISVFKYVSGSSAERRAAQSRKLNPVPGSYPTQSCHPHLSPSHPVSQTQHASGQKLASWPSCTPGHMPTLPPYQPASGLCYVQNHFGPNPTSSSVYPASAGTSLGIQPPTPVNSPGTVYSGALGTPGAAGSKESSRVPMP [RHBDD2] |  | thermal stability score (HeLa Kyoto [2]; [4]): -1.05; thermal stability score (HeLa Kyoto [2]; cell cycle stage: mitosis): -1.48; melting temperature (HeLa Kyoto [3]; cell cycle stage: mitosis): 52.5 °C
MRPL40 | 0.188 | 
MAARRRRSTGGGRARALNESKRVNNGNTAPEDSSPAKKTRRCQRQESKKMPVAGGKANKDRTEDKQDGMPGRSWASKRVSESVKALLLKGKAPVDPECTAKVGKAHVYCEGNDVYDVMLNQTNLQFNNNKYYLIQLLEDDAQRNFSVWMRWGRVGKMGQHSLVACSGNLNKAKEIFQKKFLDKTKNNWEDREKFEKVPGKYDMLQMDYATNTQDEEETKKEESLKSPLKPESQLDLRVQELIKLICNVQAMEEMMMEMKYNTKKAPLGKLTVAQIKAGYQSLKKIEDCIRAGQHGRALMEACNEFYTRIPHDFGLRTPPLIRTQKELSEKIQLLEALGDIEIAIKLVKTELQSPEHPLDQHYRNLHCALRPLDHESYEFKVISQYLQSTHAPTHSDYTMTLLDLFEVEKDGEKEAFREDLHNRMLLWHGSRMSNWVGILSHGLRIAPPEAPITGYMFGKGIYFADMSSKSANYCFASRLKNTGLLLLSEVALGQCNELLEANPKAEGLLQGKHSTKGLGKMAPSSAHFVTLNGSTVPLGPASDTGILNPDGYTLNYNEYIVYNPNQVRMRYLLKVQFNFLQLW [PARP2] |  | thermal stability score (HeLa Kyoto [2]; [4]): 1.04; thermal stability score (HeLa Kyoto [2]; cell cycle stage: mitosis): 1.69; melting temperature (HeLa Kyoto [3]; cell cycle stage: G1/S): 47.1 °C; melting temperature (HeLa Kyoto [3]; cell cycle stage: mitosis): 50.5 °C
MAVAAAAAAGPVFWRRLLGLLPGRPGLAALLGRLSDRLGRNRDRQRRRSPWLLLAPLLSPAVPQVTSPPCCLCPEGVHRFQWIRNLVPEFGVSSSHVRVLSSPAEFFELMKGQIRVAKRRVVMASLYLGTGPLEQELVDCLESTLEKSLQAKFPSNLKVSILLDFTRGSRGRKNSRTMLLPLLRRFPEQVRVSLFHTPHLRGLLRLLIPERFNETIGLQHIKVYLFDNSVILSGANLSDSYFTNRQDRYVFLQDCAEIADFFTELVDAVGDVSLQLQGDDTVQVVDGMVHPYKGDRAEYCKAANKRVMDVINSARTRQQMLHAQTFHSNSLLTQEDAAAAGDRRPAPDTWIYPLIQMKPFEIQIDEIVTETLLTEAERGAKVYLTTGYFNLTQAYMDLVLGTRAEYQILLASPEVNGFFGAKGVAGAIPAAYVHIERQFFSEVCSLGQQERVQLQEYWRRGWTFHAKGLWLYLAGSSLPCLTLIGSPNFGYRSVHRDLEAQIAIVTENQALQQQLHQEQEQLYLRSGVVSSATFEQPSRQVKLWVKMVTPLIKNFF [PGS1] |  | thermal stability score (HeLa Kyoto [2]; [4]): 0.0742; thermal stability score (HeLa Kyoto [2]; cell cycle stage: mitosis): -0.577; melting temperature (HeLa Kyoto [3]; cell cycle stage: G1/S): 53.2 °C; melting temperature (HeLa Kyoto [3]; cell cycle stage: mitosis): 53.2 °C
MSRLLPLLRSRTARSLRPGPAAAAAPRPPSWCCCGRGLLALAPPGGLPGGPRRLGTHPKKEPMEALNTAQGARDFIYSLHSTERSCLLKELHRFESIAIAQEKLEAPPPTPGQLRYVFIHNAIPFIGFGFLDNAIMIVAGTHIEMSIGIILGISTMAAAALGNLVSDLAGLGLAGYVEALASRLGLSIPDLTPKQVDMWQTRLSTHLGKAVGVTIGCILGMFPLIFFGGGEEDEKLETKS [TMEM65] |  | thermal stability score (HeLa Kyoto [2]; [4]): 0.563; thermal stability score (HeLa Kyoto [2]; cell cycle stage: mitosis): 0.332; melting temperature (HeLa Kyoto [3]; cell cycle stage: G1/S): 55.5 °C; melting temperature (HeLa Kyoto [3]; cell cycle stage: mitosis): 55.9 °C
NT5C3A | -0.0945 | 
MRPL46 | 0.212 | 
MRPL53 | 0.25 | 
MISLTDTQKIGMGLTGFGVFFLFFGMILFFDKALLAIGNVLFVAGLAFVIGLERTFRFFFQKHKMKATGFFLGGVFVVLIGWPLIGMIFEIYGFFLLFRGFFPVVVGFIRRVPVLGSLLNLPGIRSFVDKVGESNNMV [GOLT1B] |  | thermal stability score (HeLa Kyoto [2]; [4]): -3.12; thermal stability score (HeLa Kyoto [2]; cell cycle stage: mitosis): -4.7; melting temperature (HeLa Kyoto [3]; cell cycle stage: G1/S): 59 °C; melting temperature (HeLa Kyoto [3]; cell cycle stage: mitosis): 54.6 °C
DNMT3B | 0.67 | 
MRPS30 | -0.14 | 
CHAF1B | 0.105 | 
RPL29 | 1.68 | 
MVPGAAGWCCLVLWLPACVAAHGFRIHDYLYFQVLSPGDIRYIFTATPAKDFGGIFHTRYEQIHLVPAEPPEACGELSNGFFIQDQIALVERGGCSFLSKTRVVQEHGGRAVIISDNAVDNDSFYVEMIQDSTQRTADIPALFLLGRDGYMIRRSLEQHGLPWAIISIPVNVTSIPTFELLQPPWTFW [PRADC1] |  | thermal stability score (HeLa Kyoto [2]; [4]): -2.33; thermal stability score (HeLa Kyoto [2]; cell cycle stage: mitosis): -2.03; melting temperature (HeLa Kyoto [3]; cell cycle stage: G1/S): 53.8 °C; melting temperature (HeLa Kyoto [3]; cell cycle stage: mitosis): 52.7 °C
HPCAL1 | -0.0209 | 
DPP7 | 0.00739 | 
MAAACGPGAAGYCLLLGLHLFLLTAGPALGWNDPDRMLLRDVKALTLHYDRYTTSRRLDPIPQLKCVGGTAGCDSYTPKVIQCQNKGWDGYDVQWECKTDLDIAYKFGKTVVSCEGYESSEDQYVLRGSCGLEYNLDYTELGLQKLKESGKQHGFASFSDYYYKWSSADSCNMSGLITIVVLLGIAFVVYKLFLSDGQYSPPPYSEYPPFSHRYQRFTNSAGPPPPGFKSEFTGPQNTGHGATSGFGSAFTGQQGYENSGPGFWTGLGTGGILGYLFGSNRAATPFSDSWYYPSYPPSYPGTWNRAYSPLHGGSGSYSVCSNSDTKTRTASGYGGTRRR [SARAF] |  | thermal stability score (HeLa Kyoto [2]; [4]): -0.125; thermal stability score (HeLa Kyoto [2]; cell cycle stage: mitosis): 0.434; melting temperature (HeLa Kyoto [3]; cell cycle stage: G1/S): 52 °C; melting temperature (HeLa Kyoto [3]; cell cycle stage: mitosis): 53.3 °C
TMEM263 | 0.0364 | 
